Measured values published in the supplement of paper PMC10567573.
± gives the standard deviation.

Test: protein stability index of a GFP-peptide fusion (GPS, HEK-293T) (PSI 1-6); higher = more stable
[1] = treatment: DMSO, c terminus: a fixed tail appended
[2] = treatment: MLN4924 1 uM, 8 h, c terminus: a fixed tail appended
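Further: 24-mer peptide tiles fused after GFP, lentivirally expressed, FACS-sorted into six equal bins by GFP/DsRed ratio, decoded by Illumina sequencing, PSI is the read-weighted mean bin number.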

Row | Sequence | protein stability index [1] | protein stability index [2] | protein stability index (treatment: DMSO, c terminus: native) | protein stability index (treatment: MLN4924 1 uM, 8 h, c terminus: native)
1 | FGNRIKRVKLISNKGTETDNDPSC [PHTF1] | 4.06 ± 0.29 | 4.05 ± 0.42 | – | –
2 | ITEKIDVAFVDRADIKQYIGPPSA [TRIP13] | 3.6 ± 0.15 | 3.54 ± 0.58 | – | –
3 | ENNMLQPETHIFTAPEEVPKVSDQ [DMRTC1] | 5.57 ± 0.18 | 5.56 ± 0.21 | – | –
4 | SALERLETKLHLLRQEMVNLRATD [LURAP1L] | 2.73 ± 0.22 | 2.79 ± 0.58 | – | –
5 | MQCPVIAVNSGGPLESIDHSVTGF [ALG2] | 2.83 ± 0.42 | 3.26 ± 0.3 | – | –
6 | LSPLSLAQYDSWPHYPEYFQQPAP [LOXL2] | 2.62 ± 0.12 | 2.87 ± 0.18 | – | –
7 | LVVILLSIVAVGFHIFRTLEVNRL [PKD2L1] | 3.44 ± 0.88 | 3.12 ± 0.23 | – | –
8 | VFDLRMMVANILNNEAFMNQEITK [RHOBTB2] | 2.72 ± 0.47 | 2.43 ± 0.46 | – | –
9 | HALSGHAKVKPFDPKITCKQECLI [TPH1] | 2.13 ± 0.27 | 2.12 ± 0.19 | – | –
10 | RNGGSLADAISENYRIMSYFKEAE [WEE1] | 3.08 ± 0.36 | 3.2 ± 0.28 | – | –
11 | FQLNQDKMNFSTLRNIQGLFAPLK [POMP] | 2.54 ± 0.61 | 2.3 ± 0.4 | – | –
12 | PGGPCDSTLGGDIRESDPEQAPAP [TBX6] | 5.49 ± 0.16 | 5.44 ± 0.29 | – | –
13 | LAEAKYYLVQGLVEECQAALQNKD [KCTD10] | 3.24 ± 0.17 | 3.38 ± 0.29 | – | –
14 | YSSGPQSWYPKANNQDFIPFTKKR [ZC2HC1C] | 3.07 ± 0.54 | 3.68 ± 0.22 | – | –
15 | VSSVFLLTLSIAFICCAQVKVSHL [PHTF1] | 3.57 ± 0.43 | 3.02 ± 0.58 | – | –
16 | RRQAVAWLVAMHKAAKLLYESRDQ [ZFYVE21] | 2.29 ± 0.54 | 2.36 ± 0.49 | – | –
17 | SAHFTSGPLVPRLAGMANHGSPQL [TBX5] | 3.35 ± 0.21 | 3.5 ± 0.13 | – | –
18 | LPCTSRCPRPCRESAFKLSTGTSR [SCNN1D] | 2.64 ± 0.99 | 2.9 ± 0.38 | – | –
19 | HSTLEYKVKERLGTLKNPPKKKMK [LCOR] | 4.47 ± 0.26 | 4.73 ± 0.28 | – | –
20 | GGYLQRTTYDRRSSQERKFMEERE [RSPH3] | 4.82 ± 0.21 | 4.76 ± 0.17 | – | –
21 | VKMDSSIQPGPFRAVLKYLYTGEL [RHOBTB2] | 2.32 ± 0.96 | 2.02 ± 0.45 | – | –
22 | SDTIPYLKKFLYNFDNPWNFQNIP [MIA2] | 2.28 ± 0.84 | 2.5 ± 0.59 | – | –
23 | KISKQFVAPADVRRLLSYCKGRDH [ZSWIM9] | 2.49 ± 0.32 | 2.81 ± 0.27 | – | –

Row | Sequence | protein stability index [1] | protein stability index [2] | protein stability index (treatment: DMSO, c terminus: native) | protein stability index (treatment: MLN4924 1 uM, 8 h, c terminus: native)
24 | FVVTMLKLIQKKLLDKTCDQVMEF [ZER1] | 3.14 ± 0.39 | 3.15 ± 0.32 | – | –
25 | TEAESEQEGSSGMELSWGQSPGQP [TEX19] | 5.43 ± 0.24 | 5.26 ± 0.25 | – | –
26 | AGKWRSYKGELFDKTPVLLTDYPV [MYORG] | 2.32 ± 0.21 | 2.43 ± 0.25 | – | –
27 | TLTWDSGNPEPVSYYIIQHKPKNS [PTPRD] | 2.69 ± 0.12 | 3.05 ± 0.41 | – | –
28 | RHTLQKLTCEFNNNHESLDEELHL [FBXO39] | 4.38 ± 0.21 | 4.56 ± 0.3 | – | –
29 | NLVLSEDRKSVKFVETRLRDLPDT [TRIM39] | 4.31 ± 0.25 | 4.37 ± 0.2 | – | –
30 | NNSWIRKNSTMVNSEDIFLLLCLK [TRIM43] | 2.84 ± 0.42 | 2.23 ± 0.43 | – | –
31 | QFRLKEAFDYIKQRRSMVSPNFGF [DUSP5] | 2.19 ± 0.31 | 2.22 ± 0.17 | – | –
32 | RVGQLQEALNERHSIINALKAKLQ [LRRC45] | 2.45 ± 0.43 | 2.46 ± 0.3 | – | –
33 | AGEREDLWAGSKGKEFGYFPRDAV [MIA2] | 3.47 ± 0.15 | 3.86 ± 0.51 | – | –
34 | QVEGLTVQYLGQAPELLGGAEPGT [ADAMTS4] | 4.53 ± 0.51 | 4.87 ± 0.4 | – | –
35 | FGRGSRTVDLELELQIELLRETKR [ARFIP2] | 2.26 ± 0.15 | 2.32 ± 0.26 | – | –
36 | DYELEDETRPAKRITITESNMKSR [WEE1] | 4.74 ± 0.35 | 5.16 ± 0.29 | – | –
37 | NQACKLLSDDYEQVRSAAVQLIWV [INTS4] | 2.62 ± 0.29 | 2.59 ± 0.36 | – | –
38 | QLAQDDIDGIQAIYGRSQNPVQPI [MMP1] | 3.69 ± 0.1 | 3.9 ± 0.14 | – | –
39 | EFIMPDSAVVGDVLVLTKPLGTQV [SEPHS2] | 2.3 ± 0.31 | 2.54 ± 0.32 | – | –
40 | RISFCADDKTDKRIFTFICKDSES [GULP1] | 3.52 ± 0.47 | 3.47 ± 0.96 | – | –
41 | RQWTVSDWGPCSGSCGQGRTIRHV [ADAMTSL2] | 2.15 ± 0.23 | 2.826 ± 0.025 | – | –
42 | PVGQEIVIPFKVDTILKYLKDHFS [IQUB] | 2.33 ± 0.73 | 1.95 ± 0.39 | – | –
43 | ILVSVAAGVSLSTLEELLPPNTRV [PYCR3] | 2.77 ± 0.49 | 2.62 ± 0.54 | – | –
44 | DEEVSGSSKTITAEIPDGPPVVAH [C18orf25] | 5.35 ± 0.25 | 5.41 ± 0.22 | – | –
45 | VPQAPRRLRASFSRKPSLKGNRED [PLEKHN1] | 4.71 ± 0.097 | 4.83 ± 0.13 | – | –
46 | ALEFWRQEELTRINQSFTGAERKA [IQUB] | 3.87 ± 0.52 | 3.73 ± 0.43 | – | –

Row | Sequence | protein stability index [1] | protein stability index [2] | protein stability index (treatment: DMSO, c terminus: native) | protein stability index (treatment: MLN4924 1 uM, 8 h, c terminus: native)
47 | PEMRWNKGTILKASVDYIRKLQKE [TFE3] | 2.91 ± 0.24 | 2.95 ± 0.17 | – | –
48 | HRGHCERRHRLGGVGAVPGPGTPT [ZBTB22] | 4.2 ± 0.26 | 4.36 ± 0.16 | – | –
49 | GYVSQQGGQRSTPLIIAARNGHAK [FEM1B] | 3.74 ± 0.15 | 3.8 ± 0.34 | – | –
50 | RAEKEACQREKELPAAVHPFHFV [ZBED2] | – | – | 4.87 ± 0.39 | 4.8 ± 0.34
51 | DNRCKLFDSPSLCSSSTRSVLKRP [CDC25A] | 3.48 ± 0.2 | 3.64 ± 0.28 | – | –
52 | GCSSSGSCSQGSGILHYAHGDSQQ [CRY1] | 3.75 ± 0.41 | 3.67 ± 0.075 | – | –
53 | TVNALEIELQAQHSMRNSLESTLA [KRT36] | 3.38 ± 0.31 | 3.38 ± 0.29 | – | –
54 | IGSTSESKDWEEVVVESMEQDRIP [MIA2] | 5.08 ± 0.32 | 5.11 ± 0.26 | – | –
55 | PEGPEPAAPGKQPGRGHTHAAQGG [ELOA2] | 5.39 ± 0.27 | 5.51 ± 0.16 | – | –
56 | GLSVSSRFSSGGACGLGGGYGGGF [KRT16] | 2.2 ± 0.39 | 2.52 ± 0.38 | – | –
57 | YDFDTQYAFVGDYSGQITLLKLEQ [WDFY1] | 2.19 ± 0.11 | 2.33 ± 0.27 | – | –
58 | KQIVSAVAHCHQSAIVLGDLKLRK [TRIB1] | 2.77 ± 0.18 | 2.72 ± 0.27 | – | –
59 | KEEKQRRRCKPKKPTRRDASPESP [GNAS] | 5.43 ± 0.18 | 5.47 ± 0.11 | – | –
60 | ALLGYEMVQVACGASHVLALSTER [NEK8] | 2.5 ± 0.88 | 2.12 ± 0.44 | – | –
61 | GGGNDRVRNLQSEVEGVKNIMTQN [VAMP8] | 4.61 ± 0.34 | 4.75 ± 0.35 | – | –
62 | KEEGLPEEEPSHVTGREGFPTDAP [ZNF8] | 5.45 ± 0.23 | 5.57 ± 0.3 | – | –
63 | LALLNLACMMTITFLPYTFSLMVT [TMEM175] | 3.27 ± 0.32 | 3.38 ± 0.27 | – | –
64 | IFALYSSLKFKSRVPQTWSKRLYG [PLD5] | – | 2.83 ± 1.7 | – | –
65 | PRPVQLDETHPYTVTSVSCCHGNT [NEK8] | 3.94 ± 0.23 | 4.02 ± 0.14 | – | –
66 | TWLKGKFTELRLLLDEEEALAKKF [TRIM14] | 2.23 ± 0.42 | 2.34 ± 0.23 | – | –
67 | PPQPCATACKPVIRVPSVPPVPCV [KRT36] | 2.9 ± 0.28 | 2.91 ± 0.16 | – | –
68 | LGPELIKESNANPIFMRKDTKMSF [DPCD] | 3.46 ± 0.084 | 3.43 ± 0.2 | – | –
69 | NENPNNFQILLLSDPSTIEASNFQ [PNLIPRP1] | 3.33 ± 0.36 | 3.44 ± 0.5 | – | –

Row | Sequence | protein stability index [1] | protein stability index [2] | protein stability index (treatment: DMSO, c terminus: native) | protein stability index (treatment: MLN4924 1 uM, 8 h, c terminus: native)
70 | VMRTKSSEKAANDDHSVRVAREDV [CPXM2] | 5.08 ± 0.54 | 5.16 ± 0.35 | – | –
71 | ALGIYGAPYAAAAAAQSYPGYLPY [IRX6] | 2.23 ± 0.14 | 2.19 ± 0.27 | – | –
72 | GQDKQFAWHCSESGQRLGGYRTSA [WDFY2] | 3.51 ± 0.24 | 3.24 ± 0.28 | – | –
73 | SSISSSARRTTRSEPIRRAGKSGT [MAP2] | 4.89 ± 0.26 | 5.09 ± 0.16 | – | –
74 | DRLEEQLPWLSLRALKFRERDALE [DNAAF3] | 3.4 ± 0.24 | 3.42 ± 0.19 | – | –
75 | NDRVQTIITQLEDSRRVTKENSHQ [TRIM63] | 4.99 ± 0.23 | 4.92 ± 0.13 | – | –
76 | DLDLIQSTPFKPLALKTPPRVLTL [MFF] | 2.31 ± 0.3 | 2.36 ± 0.34 | – | –
77 | KPLLGSAVLGLLLVLAAVVAWCYY [MYORG] | 2.11 ± 0.4 | 2.25 ± 0.24 | – | –
78 | PAAPGAGGGSGSAPGPSRIADYLL [TRIB1] | 4.02 ± 0.68 | 4.14 ± 0.21 | – | –
79 | DQVSACIPVFRLARRRKKILFYCH [ALG2] | 2.22 ± 0.47 | 2.24 ± 0.075 | – | –
80 | QSTVKCLTVLQRLDVWLSGGNDLC [WDR41] | 2.6 ± 0.63 | 2.32 ± 0.4 | – | –
81 | EGTLGYAIGGTYLGPAFRGLKGRT [SPSB2] | 3.14 ± 0.1 | 3.06 ± 0.32 | – | –
82 | RLSGLSSVGHNWRKRMGTRRGRHE [C22orf15] | 4.08 ± 0.23 | 4.14 ± 0.19 | – | –
83 | KYIHRMMQIEFIKQGSMNFRFIPV [TRAF3IP2] | 3.659 ± 0.005 | 2.21 ± 1.1 | – | –
84 | QLKLDHYRAALRSCSLVLEHQPDN [FKBP8] | 2.93 ± 0.18 | 2.98 ± 0.27 | – | –
85 | ELPLLTPCSKAVMSQALKATFSGF [ETS2] | 2.62 ± 0.28 | 2.06 ± 0.65 | – | –
86 | LKNHFQSVLEQLELQEKQKNEKLI [TAF7L] | 2.82 ± 0.12 | 2.95 ± 0.22 | – | –
87 | YSVARQFNLTPPICEQAEYHMFQR [KCNAB2] | 2.64 ± 0.23 | 2.93 ± 0.29 | – | –
88 | GGEYQEPGGNVKGVWAPPAPGFGE [BEX5] | 4.05 ± 0.53 | 4.38 ± 0.31 | – | –
89 | SAVAMYMLYEKQKQQNVAHCMLVS [ZBED1] | 2.92 ± 0.54 | 2.74 ± 0.53 | – | –
